Laboratory results taken from patent publication US20200339702A1 (ULTRAHUMAN THIRTEEN, published 2020).
Where a chain is given by its changes, count along the chain named.

T1: rhesus ERBB3 on transiently transfected HEK-293 cells (rhesus monkey (Macaca mulatta), UniProt P21860 20-1342 (human entry))
T1 construct: also called rhesus ERBB3+ HEK-293 cells
T1 chain: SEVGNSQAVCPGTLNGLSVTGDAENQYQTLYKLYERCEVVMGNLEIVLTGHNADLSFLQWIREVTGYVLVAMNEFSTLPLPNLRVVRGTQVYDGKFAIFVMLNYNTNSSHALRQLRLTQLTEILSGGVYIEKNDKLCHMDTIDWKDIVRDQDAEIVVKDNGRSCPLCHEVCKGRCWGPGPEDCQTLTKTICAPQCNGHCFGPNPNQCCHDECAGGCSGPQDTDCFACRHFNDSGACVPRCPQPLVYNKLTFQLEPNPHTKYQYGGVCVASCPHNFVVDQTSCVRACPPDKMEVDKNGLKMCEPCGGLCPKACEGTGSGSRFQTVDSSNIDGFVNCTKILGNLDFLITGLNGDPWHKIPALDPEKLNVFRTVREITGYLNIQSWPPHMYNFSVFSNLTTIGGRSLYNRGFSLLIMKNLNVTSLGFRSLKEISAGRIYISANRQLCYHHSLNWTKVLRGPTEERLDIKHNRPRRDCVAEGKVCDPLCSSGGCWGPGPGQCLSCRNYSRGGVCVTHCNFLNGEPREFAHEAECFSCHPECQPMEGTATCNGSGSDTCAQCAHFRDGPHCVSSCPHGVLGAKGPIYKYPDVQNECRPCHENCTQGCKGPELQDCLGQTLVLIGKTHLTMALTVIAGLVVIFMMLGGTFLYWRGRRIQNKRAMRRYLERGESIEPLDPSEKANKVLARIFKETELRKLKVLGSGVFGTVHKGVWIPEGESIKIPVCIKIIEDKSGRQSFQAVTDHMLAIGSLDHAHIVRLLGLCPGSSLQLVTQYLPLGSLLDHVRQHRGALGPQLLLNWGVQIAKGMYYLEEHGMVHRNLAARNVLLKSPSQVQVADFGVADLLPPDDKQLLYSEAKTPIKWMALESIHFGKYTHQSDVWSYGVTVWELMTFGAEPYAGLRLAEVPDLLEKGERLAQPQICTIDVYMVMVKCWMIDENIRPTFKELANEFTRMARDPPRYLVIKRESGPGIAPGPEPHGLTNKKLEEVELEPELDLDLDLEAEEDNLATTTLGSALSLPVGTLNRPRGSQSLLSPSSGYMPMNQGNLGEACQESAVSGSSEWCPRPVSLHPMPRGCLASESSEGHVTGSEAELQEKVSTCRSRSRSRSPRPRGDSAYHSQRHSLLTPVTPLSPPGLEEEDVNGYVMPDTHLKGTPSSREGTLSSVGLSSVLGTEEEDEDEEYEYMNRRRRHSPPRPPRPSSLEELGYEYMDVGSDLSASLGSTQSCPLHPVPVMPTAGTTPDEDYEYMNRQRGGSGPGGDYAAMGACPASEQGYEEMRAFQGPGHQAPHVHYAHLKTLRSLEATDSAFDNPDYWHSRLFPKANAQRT

T2: rhesus monkey ERBB3 His tag, monomeric (rhesus monkey (Macaca mulatta), UniProt P21860 20-643 (human entry), limits assumed)
T2 chain: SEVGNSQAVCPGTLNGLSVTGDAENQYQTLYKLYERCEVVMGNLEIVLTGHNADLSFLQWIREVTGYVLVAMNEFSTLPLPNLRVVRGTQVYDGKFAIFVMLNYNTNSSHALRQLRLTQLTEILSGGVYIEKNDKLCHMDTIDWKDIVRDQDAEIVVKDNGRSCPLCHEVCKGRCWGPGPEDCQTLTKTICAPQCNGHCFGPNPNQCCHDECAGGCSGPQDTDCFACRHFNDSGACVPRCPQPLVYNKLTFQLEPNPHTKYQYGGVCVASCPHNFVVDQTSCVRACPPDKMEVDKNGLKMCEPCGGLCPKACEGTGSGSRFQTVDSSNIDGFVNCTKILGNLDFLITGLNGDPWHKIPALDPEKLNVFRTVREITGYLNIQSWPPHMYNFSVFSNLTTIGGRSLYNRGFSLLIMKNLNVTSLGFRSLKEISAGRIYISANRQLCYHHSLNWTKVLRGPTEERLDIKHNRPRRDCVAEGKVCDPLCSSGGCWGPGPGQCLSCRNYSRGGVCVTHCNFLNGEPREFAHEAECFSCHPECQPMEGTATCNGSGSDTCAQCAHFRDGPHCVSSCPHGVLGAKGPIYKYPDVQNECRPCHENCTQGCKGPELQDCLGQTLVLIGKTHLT

T3: rhesus monkey ERBB3 human Fc tagged recombinant protein (rhesus monkey (Macaca mulatta), UniProt P21860 20-643 (human entry), limits assumed)
T3 construct: also called rhesus ERBB3-Fc; rhERBB3
T3 chain: T2 chain

B1: 15G11-DI1 IgG1 (antibody, V domains shown)
VH: QVQLVESGGGLVKPGGSLRLSCAASGFTFSDYGMSWVRQAPGKGLEWVSTISDSGSYTYYPDSVKGRFTISRDNAKNSLYLQMNSLRAEDTAVYYCARELGDYDGFDYWGQGTLVTVSS
VL: DIQMTQSPSSLSASVGDRVTITCRASQEISSYLSWYQQKPGKAPKLLIYAASSLDTGVPSRFSGSGSGTDFTLTISSLQPEDFATYYCLQYDSTPYTFGGGTKVEIK
notes: Human IgG1 format, human Ckappa
B2: 15G11-DI6 IgG1 (antibody, V domains shown)
VH: B1 VH with G33S, V37I, S56T, L100W, Y108F
VL: B1 VL with S31T
notes: as for B1
B3: 15G11-DI11 IgG1 (antibody, V domains shown)
VH: B1 VH
VL: B1 VL with I29A, I48A, T56S, T94S
notes: as for B1
B4: 15G11-DI5 IgG1 (antibody, V domains shown)
VH: B1 VH with G33S, V37I, S56T, L100W, Y108F
VL: B1 VL
notes: as for B1
B5: MH2 IgG1null (antibody, V domains shown)
VH: B1 VH with V37I, T58I, P61A, L100W, Y108F
VL: B1 VL with E28S, D55Q, T56S, Y96L
notes: Designer (Maximally Humanized) clone; Human IgG1null and human Ckappa
B6: MH1 IgG1null (antibody, V domains shown)
VH: B1 VH with V37I, T58I, P61A
VL: B1 VL with E28S, D55Q, T56S, Y96L
notes: as for B5
B7: 17H10 IgG1null (antibody, V domains shown)
VH: B1 VH with V37I, S54G, P61A, L100W, Y108E
VL: B1 VL with E28S, S31G, S53T, D55Q, T56S
notes: Human IgG1null and human Ckappa
B8: MH5 IgG1null (antibody, V domains shown)
VH: B1 VH with V37I, Y57T, T58I, P61A, L100Y
VL: B1 VL with E28S, D55Q, T56S, Y96L
notes: as for B5
B9: MH4 IgG1null (antibody, V domains shown)
VH: B1 VH with V37I, T58I, P61A, L100W, Y108E
VL: B1 VL with E28S, D55Q, T56S, Y96L
notes: as for B5

molecular target: T4, human insulin (human, UniProt P01308 25-54; P01308 90-110, limits assumed); assay: development risk ELISA on insulin
T4 construct: Off-target protein in the development risk (polyreactivity) ELISA
T4 sequence (P01308 25-54 limits assumed, chain 1 of 2): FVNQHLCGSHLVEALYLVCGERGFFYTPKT
T4 sequence (P01308 90-110 limits assumed, chain 2 of 2): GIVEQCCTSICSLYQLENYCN

Row | binding score | Binder
1 | < 10 | B1
2 | < 10 | B2
3 | < 10 | B3
4 | < 10 | B4

molecular target: T5, human ERBB3 on transiently transfected HEK-293 cells (human, UniProt P21860 20-1342); assay: flow cytometry, human ERBB3-transfected HEK-293
T5 construct: also called human ERBB3+ HEK-293 cells
Protocol: (§1) Purified IgGs were tested in FACs for binding to human and rhesus monkey ERBB3 expressed on transiently transfected HEK-293 cells and HEK-293 wild-type cells. The IgG samples were titrated in three-fold serial dilutions starting at 500 nM to 0.008 nM. Binding of IgGs was detected with a mouse anti-human IgG conjugated to FITC. Results were analyzed by examining the Mean Fluorescence Intensity (MFI) of 10000 cells per sample in the BL-1 channel detector of a flow cytometer (Attune™ NxT Acoustic Focusing Cytometer, Invitrogen/ThermoFisher Scientific).
(§2) Antibodies to ERBB3 were analysed for concentration-dependent binding at the cell surface via flow cytometry. HEK-293 cells were transiently transfected with either human or rhesus ERBB3 full-length cDNAs. Anti-ERBB3 IgGs and an isotype control were then all tested in IgG1null format, over a concentration range of 500-0.008 nM for binding to human (FIG. 5A) and rhesus (FIG. 5B) transfected cells.

Row | maximum MFI, fold over isotype control background [fold] | Binder
5 | > 20 | B5
6 | > 20 | B6
7 | > 20 | B7
8 | > 20 | B8
9 | > 20 | B9

Molecular target: T1, rhesus ERBB3 on transiently transfected …
Assay: flow cytometry, rhesus ERBB3-transfected HEK-293
Protocol: as §1, §2

Row | maximum MFI, fold over isotype control background [fold] | Binder
10 | > 20 | B5
11 | > 20 | B6
12 | > 20 | B7
13 | > 20 | B8
14 | > 20 | B9

molecular target: T6, human ERBB3 His tagged, monomeric (human, UniProt P21860 20-643, biotinylated in the Alphascreen assays (sites not given)); assay: SPR (Biacore), captured IgG, monomeric ERBB3-His analyte
T6 construct: Used unbiotinylated as Biacore analyte and biotinylated in Alphascreen; treated as one molecule; also called human ERBB3-His (Acrobiosystems); biotinylated monomeric human ERBB3
Protocol: (§3) Affinity (KD) of purified IgGs was determined via SPR with antigen in-solution on a Biacore® 3000 (GE). A mouse anti-human antibody (CH1 specific) was immobilized on a CM5 Sensor Chip to a level of 2000 RU in acetate buffer at pH 4.5 using amine coupling following the Wizard instructions for two channels. One channel was used for background signal correction. The standard running buffer HBS-EP pH 7.4 was used. Regeneration was performed with a single injection of 10 μl of 10 mM Glycine at pH 1.5 at […]. IgG samples were injected for 2 minutes at 50 nM at 30 μl/min followed by an off-rate of 60 seconds. The monomeric antigen (human ERBB3 His tagged or rhesus monkey ERBB3 His tag) was injected in two fold serial dilutions from 3 nM down to 0.2 nM, for 2 minutes at 30 μl/min followed by an off-rate of 300 seconds. The obtained sensorgrams were analysed using the Biacore® 3000 evaluation (BlAevaluation) software. The KD was calculated by simultaneous fitting of the association and dissociation phases to a 1:1 Langmuir binding model.
(§4) Biacore® analyses of binding affinity were performed for all IgGs to solution-phase, monomeric human and rhesus ERBB3 proteins.

Row | Kd [nM] | koff [s⁻¹] | kon [M⁻¹ s⁻¹] | Binder
15 | 0.27 | 0.0029 | 1.1e+07 | B5
16 | 0.51 | 0.0035 | 6.8e+06 | B6
17 | 0.19 | 0.0017 | 9.3e+06 | B7
18 | 0.71 | 0.0041 | 5.8e+06 | B8
19 | 0.26 | 0.0029 | 1.1e+07 | B9

Molecular target: T2, rhesus monkey ERBB3 His tag, monomeric
Assay: as above
Protocol: as §3, §4

Row | Kd [nM] | koff [s⁻¹] | kon [M⁻¹ s⁻¹] | Binder
20 | 0.23 | 0.0048 | 2e+07 | B5
21 | 0.45 | 0.0056 | 1.3e+07 | B6
22 | 0.65 | 0.0018 | 2.7e+06 | B7
23 | 0.51 | 0.006 | 1.2e+07 | B8
24 | 0.21 | 0.0047 | 2.2e+07 | B9

molecular target: T7, human ERBB3 human Fc tagged recombinant protein (human, UniProt P21860 20-643); assay: direct binding ELISA on coated human ERBB3-Fc, IgG1 titrated
T7 construct: also called human ERBB3-Fc; huERBB3
Protocol: (§5) Binding and cross-reactivity of the lead panel to the recombinant proteins was initially assessed by binding ELISA. The human ERBB3 human Fc tagged recombinant protein and the rhesus monkey ERBB3 human Fc tagged recombinant protein were coated to the surface of MaxiSorp™ flat-bottom 96 well plate at 1 μg/ml. The purified IgG samples were titrated in two fold serial dilutions starting from 500 nM to 0.008 nM and allowed to bind to the coated antigens. The Fabs were detected using mouse anti-c-myc antibody followed by donkey anti-mouse IgG conjugated to horseradish peroxidase. The IgGs were detected using the mouse anti-human IgG conjugated to horseradish peroxidase. Binding signals were visualized with 3,3′,5,5′-Tetramethylbenzidine Substrate Solution (TMB) and the absorbance measured at 450 nm.

Row | EC50 (read off the curve) [nM] | Binder
25 | ~0.2 | B4

Molecular target: T3, rhesus monkey ERBB3 human Fc tagged …
Assay: direct binding ELISA on coated rhesus ERBB3-Fc, IgG1 titrated
Protocol: as §5

Row | binding result | EC50 (read off the curve) [nM] | Binder
26 | binds |  | B1
27 | binds |  | B2
28 |  | ~0.2 | B4

molecular target: T5, human ERBB3 on transiently transfected …; assay: flow cytometry, human ERBB3-transfected HEK-293 cells, IgG1 titrated
Protocol: as §1

Row | EC50 (read off the curve) [nM] | Binder
29 | ~1 | B2

Molecular target: T1, rhesus ERBB3 on transiently transfected …
Assay: flow cytometry, rhesus ERBB3-transfected HEK-293 cells, IgG1 titrated
Protocol: as §1

Row | binding result | EC50 (read off the curve) [nM] | Binder
30 | binds |  | B1
31 |  | ~0.3 | B2
32 | binds |  | B4

molecular target: T6, human ERBB3 His tagged, monomeric; assay: Alphascreen competition in solution, competitor h24C05 IgG1, biotinylated human ERBB3-His

Row | IC50 (read off the curve) [nM] | Binder
33 | ~0.5 | B1
